Measured values from article PMC8809517, “Cofactor-independent RNA editing by a synthetic S-type PPR protein”.
Changes are numbered by the printed parent chain.

What was measured:
Assay in all cases: high-throughput RNA pulldown from lysate on Ni-NTA beads; HRP: 50 mM Tris pH 8, 150 mM NaCl, 1 mM beta-mercaptoethanol, 50 ug/ml BSA, 3 ug/ml yeast RNA, 0.5% heparin; ITC and FP: Tris pH 8, 200 mM KCl, 5% glycerol; MST: 50 mM Tris pH 8, 200 mM NaCl, 1 mM DTT, BSA, heparin, 0.05% Tween 20
Conditions in all cases: tags: N-terminal His-eGFP
[1] = target: T1, GFP-9S library array, motif 4 ND N98F;D124N (synthetic construct, N98F;D124N)
T1 chain: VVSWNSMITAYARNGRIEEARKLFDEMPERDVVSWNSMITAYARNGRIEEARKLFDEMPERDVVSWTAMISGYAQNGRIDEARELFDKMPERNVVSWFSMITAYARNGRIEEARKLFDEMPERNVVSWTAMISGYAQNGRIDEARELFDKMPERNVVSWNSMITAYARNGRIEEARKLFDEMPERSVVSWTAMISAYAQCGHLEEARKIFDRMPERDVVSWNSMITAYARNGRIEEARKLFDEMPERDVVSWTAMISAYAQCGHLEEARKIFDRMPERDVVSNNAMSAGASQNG

[2] = target: T2, GFP-9S library array, motif 4 ND N98A;D124L (synthetic construct, N98A;D124L)
T2 chain: T1 chain with F98A, N124L

[3] = target: T3, GFP-9S library array, motif 4 ND N98F;D124H (synthetic construct, N98F;D124H)
T3 chain: T1 chain with N124H

[4] = target: T4, GFP-9S library array, motif 4 ND N98A;D124V (synthetic construct, N98A;D124V)
T4 chain: T1 chain with F98A, N124V

[5] = target: T5, GFP-9S library array, motif 4 ND N98M;D124P (synthetic construct, N98M;D124P)
T5 chain: T1 chain with F98M, N124P

B1: IR-rpoA-A (ssRNA)
RNA: AUUAAACGUGA
Kd ([1]; label: 5' IRDye 800CW): 196 nM
Kd ([2]; label: 5' IRDye 800CW): 272 nM
Kd ([3]; label: 5' IRDye 800CW): 188 nM
Kd ([4]; label: 5' IRDye 800CW): 497 nM
Kd ([5]; label: 5' IRDye 800CW): 264 nM

B2: Cy5-rpoA-G (ssRNA)
RNA: AUUAGACGUGA
Kd ([1]; label: 5' Cy5): 101 nM
Kd ([2]; label: 5' Cy5): 134 nM
Kd ([3]; label: 5' Cy5): 84.9 nM
Kd ([4]; label: 5' Cy5): 124 nM
Kd ([5]; label: 5' Cy5): 115 nM

B3: Cy5-rpoA (ssRNA)
RNA: AUUACACGUGA
Kd ([1]; label: 5' Cy5): 81.4 nM
Kd ([2]; label: 5' Cy5): 129 nM
Kd ([3]; label: 5' Cy5): 73.4 nM
Kd ([4]; label: 5' Cy5): 91.2 nM
Kd ([5]; label: 5' Cy5): 106 nM

B4: IR-rpoA-U (ssRNA)
RNA: AUUAUACGUGA
Kd ([1]; label: 5' IRDye 800CW): 112 nM
Kd ([2]; label: 5' IRDye 800CW): 255 nM
Kd ([3]; label: 5' IRDye 800CW): 138 nM
Kd ([4]; label: 5' IRDye 800CW): 152 nM
Kd ([5]; label: 5' IRDye 800CW): 296 nM
